From article PMC11161652, “ASXLs binding to the PHD2/3 fingers of MLL4 provides a mechanism for the recruitment of BAP1 to active enhancers” (Nature Communications, 2024) come the findings set out here.

In general, Kd refers to the free concentration of one partner at which half of the binding sites on the other are occupied at equilibrium, for simple one-to-one binding.

Read-outs that look alike come from different tables or passages of the source. Ends that are not written are not given here.

One assay has as its target T1, MLL4PHD2/3 (Homo sapiens, UniProt O14686).
T1 construct: MLL4 (aa 227-324); GST (N, cleaved yes); made in house; host or cells: E. coli BL21-CodonPlus
T1 sequence (O14686 227-324): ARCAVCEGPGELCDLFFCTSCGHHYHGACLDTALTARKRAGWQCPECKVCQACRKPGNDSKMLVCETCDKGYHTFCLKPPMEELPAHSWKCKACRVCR
The assay is described as follows: NMR titration binding, WT MLL4PHD2/3. The conditions noted are these: 0.1 mM protein; for binding in NMR titration (CSPs): 1H,15N HSQC, pH 6.8, 298 K, in words. How it is done:
(§1) All constructs were expressed in BL21-CodonPlus competent cells.
(§2) For NMR titration experiments, ^1H,^15N HSQC spectra of 0.1 mM uniformly ^15N-labeled WT or mutated MLL4PHD2/3, MLL3PHD2/3 or MLL3PHD4 were recorded while WT or mutated ASXL2 (aa 650-670, 650-664, 656-670) and ASXL3 (aa 1047-1067) peptides (synthesized by SynPeptide) or MLL3PHD2/3 were added stepwise. All experiments were carried out in 20 mM Tris buffer (pH 6.8), 150 mM NaCl, and 3 mM DTT, containing 7% D2O. The dissociation constants (Kds) were determined by a nonlinear least-squares analysis in GraphPad Prism using the equation:1 △δ=△δmaxL+P+Kd−L+P+Kd^2−4PL/2P where [L] is concentration of the peptide, [P] is concentration of the protein, Δδ is the observed chemical shift change, and Δδmax is the normalized chemical shift change at saturation. Normalized chemical shift changes were calculated using the equation Δδ=△δH^2+△sn/5^2 (2), where Δδ is the change in chemical shift in parts per million (ppm).

For the next assay, the target named is T2, MLL3PHD2/3 (Homo sapiens, UniProt Q8NEZ4).
T2 construct: human MLL3 (aa 342-439); GST (N, cleaved yes); made in house; host or cells: E. coli BL21-CodonPlus
T2 sequence (Q8NEZ4 342-439): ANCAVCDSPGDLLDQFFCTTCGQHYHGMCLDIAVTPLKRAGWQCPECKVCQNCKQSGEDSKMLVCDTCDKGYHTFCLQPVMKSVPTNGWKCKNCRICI
The assay is described as follows: NMR titration binding, WT MLL3PHD2/3. The conditions noted are these: 0.1 mM protein. How it is done: as §1, §2

The subject of the next assay is GST-MLL4PHD2/3. The assay is described as follows: GST pull-down, WT MLL4PHD2/3. It counts as binding, human. The following applies: WT GST-MLL4PHD2/3; HEK293FT lysate, 3 h at 4 °C, western blot; n = 3. As for the experimental part: (§3) Pull-down assays were performed by mixing resin-bound GST-MLL3PHD2/3 and GST-MLL4PHD2/3 (wild type and mutants) with lysates of HEK293FT expressing Myc-ASXL1, Myc-ASXL2 or Myc-ASXL2ΔMBH. Pellets of HEK293FT cells transfected with the appropriate pDEST expression construct (15 μg/dish using polyethylenimine (PEI)) were lysed with 10 times their volume of lysis buffer (50 mM Tris pH 7.3, 100 mM NaCl, 1 mM DTT, 1 mM EDTA, 1 mM PMSF, 0.1% Tween20, 1/100 anti-protease (Sigma)) and sonicated with a probe sonicator (Branson digital sonifier 450) calibrated at 40% amplitude for 3–4 rounds during 40–60 s. Lysates were then centrifuged in a Sorvall Lynx 6000 (rotor: F21-8x50Y) at 15,000 RPM during 20 min. Approximatively 9 μg of purified GST-fusion proteins bound to GSH resin (Sigma, G4510) were used for each condition. Final volume of GSH resin was adjusted to 30 μl per condition with empty GSH beads and incubated with 1.5 mL of HEK293FT lysate expressing Myc-ASXL1, Myc-ASXL2 or Myc-ASXL2ΔMBH for 3 h at 4 °C on a rotative system. A fraction of the reaction mixture (80 μL) was collected as the input. After the incubation, beads were washed 5 times and mixed with 100 μL of Laemmli buffer. Samples were loaded on 8% or 15% SDS-acrylamide gels and processed for western blotting.

A further assay concerns GST-MLL3PHD2/3. In words: GST pull-down, WT MLL3PHD2/3. The following applies: WT GST-MLL3PHD2/3; HEK293FT lysate, 3 h at 4 °C, western blot; n = 3. It counts as binding, human. As for the experimental part:
as §3
(In general: A western blot detects proteins with antibodies after separation by electrophoresis.)

Assay [1] deals with MLL4PHD2/3 or MLL3PHD2/3 mutants. In words: GST pull-down, mutated MLL3/4PHD2/3. It counts as binding, human. The following applies: mutated GST-MLL3/4PHD2/3; HEK293FT lysate, 3 h at 4 °C, western blot; n = 3. As for the experimental part:
as §3

The target in assay [2] is T3, PHD2 and PHD3 fingers of human MLL3 (aa 342-439) (human, UniProt Q8NEZ4 342-439).
T3 construct: PHD2 and PHD3 fingers of human MLL3 (KMT2C), aa 342-439; 15N-labelled for NMR titrations; also used unlabelled as the titrant against MLL3 PHD4; also called MLL3_(PHD2/3); MLL3 PHD2/3; source: E. coli BL21-CodonPlus, purified (glutathione agarose, PreScission cleavage; unlabeled proteins also SEC)
T3 sequence (looked up): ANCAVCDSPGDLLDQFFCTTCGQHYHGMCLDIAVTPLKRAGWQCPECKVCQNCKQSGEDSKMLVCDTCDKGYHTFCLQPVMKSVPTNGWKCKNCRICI
In words: other fluorescence titration; tryptophan fluorescence, 25 °C; 1.0 µM MLL4 PHD2/3 or MLL3 PHD2/3 with increasing peptide; excitation 295 nm; 20 mM Tris pH 7.2, 150 mM NaCl, 1 mM TCEP, 0.02% Tween20; average of three measurements. The conditions noted are these: both partners purified.

For assay [3], the target named is T4, PHD2 and PHD3 fingers of human MLL4 (aa 227-324) (human, UniProt O14686 227-324).
T4 construct: PHD2 and PHD3 fingers of human MLL4 (KMT2D), aa 227-324; also called MLL4_(PHD2/3); MLL4 PHD2/3; source: E. coli BL21-CodonPlus, purified (glutathione agarose, PreScission cleavage; unlabeled proteins also SEC)
T4 sequence (looked up): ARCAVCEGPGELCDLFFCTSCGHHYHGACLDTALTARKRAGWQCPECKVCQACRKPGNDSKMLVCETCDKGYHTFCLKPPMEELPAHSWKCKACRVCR
The assay is described as above. The following applies: both partners purified.

In assay [4] the target is T5, PHD2 and PHD3 fingers of human MLL3 (aa 342-439) (human, UniProt Q8NEZ4 342-439).
T5 chain: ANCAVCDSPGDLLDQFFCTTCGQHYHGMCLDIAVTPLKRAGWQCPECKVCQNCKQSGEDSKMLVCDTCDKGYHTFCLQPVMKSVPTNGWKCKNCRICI

Assay [5] concerns the target T4, PHD2 and PHD3 fingers of human MLL4 (aa …). The assay is described as follows: not stated; fluorescence spectroscopy or NMR: the legends of Fig. 3c and Fig. 4b say that values marked (a) are from NMR and the others from fluorescence; the text does not tell which for these pairs. The following applies: both partners purified.
Setting [6] is: NMR, 1H,15N HSQC titration, 20 mM Tris pH 6.8, 150 mM NaCl, 298 K.

As to “ASXL1 peptide: ASXL1 peptide; the ASXL1 region encompassing residues 607-627 (GWTGARTLADIKARALQVRGA)”, the “binding in NMR titration (CSPs)” value with MLL4PHD2/3 is listed as “large CSPs, confirming formation of the complex”.
“ASXL2 K661E: K661E mutated ASXL2 peptide (residues 650-670) (NRTGARTLADIEAKAQLVKAQ)”: the “binding in NMR titration (CSPs)” value with MLL4PHD2/3 is on record as “abrogated binding”; in the assay with MLL3PHD2/3 (1H,15N HSQC, pH 6.8, 298 K, in words), “did not form the complex”. Moreover, the Kd result with MLL4PHD2/3 (setting [6]) and in the assay with MLL3PHD2/3 (setting [6]) was “no binding” in each case.
In the case of RNTGARTLADIKARAQQARAQ [ASXL3 1047-1067], on MLL4PHD2/3, the “binding in NMR titration (CSPs)” value is reported as “large CSPs, confirming formation of the complex”.
For the molecule “full-length ASXL1: full-length ASXL1 expressed in HEK293FT cells”, the figures for the association in pull-down result (in the assay on GST-MLL4PHD2/3; in the assay on GST-MLL3PHD2/3; in assay [1]) were “detected”, “detected” and “not with the MLL4PHD2/3 or MLL3PHD2/3 mutants”, respectively.

B1: ASXL2 peptide, residues 656-670 (peptide, UniProt Q76L83 656-670, looked up)
peptide: TLADIKAKAQLVKAQ
notes: ASXL2, residues 656-670; also called ASXL2_(656-670); ASXL2 (aa 656-670); source: synthetic peptide (SynPeptide)
Regarding B1, the values for the dissociation constant (Kd) in assay [2] and in assay [3] were 133 µM and 700 µM, respectively.

B2: ASXL2 peptide, residues 650-664 (peptide, UniProt Q76L83 650-664, looked up)
peptide: NRTGARTLADIKAKA
notes: ASXL2, residues 650-664; also called ASXL2_(650-664); ASXL2 (aa 650-664); source: synthetic peptide (SynPeptide)
Consider B2, for which the figures for the Kd in assay [2] and in [3] were 28 µM and 98 µM, respectively.

B3: ASXL3 peptide (aa 1047-1067) (peptide, UniProt Q9C0F0 1047-1067, looked up)
peptide: RNTGARTLADIKARAQQARAQ
notes: ASXL3, residues 1047-1067; also called ASXL3 (aa 1047-1067); source: synthetic peptide (SynPeptide)
Regarding B3, the Kd in [2] worked out at 0.9 µM; in [3] it was 1.4 µM.

B4: ASXL2 peptide (aa 650-670) I660E (peptide, UniProt Q76L83 650-670, looked up)
peptide: NRTGARTLADEKAKAQLVKAQ
notes: ASXL2, residues 650-670; also called I660E mutant of ASXL2; source: synthetic peptide (SynPeptide)
Regarding B4, the Kd in assay [4] came to 84 µM; in [5], 1100 µM. Besides, the binding result in [2] is “binds”.
